Key:
[1] = target: HCV Core Peptide # 54 (aa 107-121) (hepatitis C virus); assay: peptide EIA summary (Table 11), peptide 54, aa 107-121
[2] = target: HCV Core Peptide # 49 (aa 97-111) (hepatitis C virus); assay: peptide EIA summary (Table 11), peptide 49, aa 97-111
[3] = target: HCV Core Peptide # 49 (aa 97-111) (hepatitis C virus); assay: EIA on coated peptide 49 (well A7); IgG 2 ug/mL
[4] = target: HCV Core Peptide # 55 (aa 109-123) (hepatitis C virus); assay: peptide EIA summary (Table 11), peptide 55, aa 109-123
[5] = target: HCV Core Peptide # 48 (aa 95-109) (hepatitis C virus); assay: peptide EIA summary (Table 11), peptide 48, aa 95-109
[6] = target: HCV Core Peptide # 52 (aa 103-117) (hepatitis C virus); assay: peptide EIA summary (Table 11), peptide 52, aa 103-117
[7] = target: HCV Core Peptide # 53 (aa 105-119) (hepatitis C virus); assay: EIA on coated peptide 53 (well E7); IgG 2 ug/mL
[8] = target: HCV Core Peptide # 50 (aa 99-113) (hepatitis C virus); assay: peptide EIA summary (Table 11), peptide 50, aa 99-113
[9] = target: HCV Core Peptide # 52 (aa 103-117) (hepatitis C virus); assay: EIA on coated peptide 52 (well D7); IgG 2 ug/mL
[10] = target: HCV Core Peptide # 54 (aa 107-121) (hepatitis C virus); assay: EIA on coated peptide 54 (well F7); IgG 2 ug/mL
[11] = target: HCV Core Peptide # 51 (aa 101-115) (hepatitis C virus); assay: peptide EIA summary (Table 11), peptide 51, aa 101-115
[12] = target: HCV Core Peptide # 50 (aa 99-113) (hepatitis C virus); assay: EIA on coated peptide 50 (well B7); IgG 2 ug/mL
[13] = target: HCV Core Peptide # 51 (aa 101-115) (hepatitis C virus); assay: EIA on coated peptide 51 (well C7); IgG 2 ug/mL
[14] = target: HCV Core Peptide # 53 (aa 105-119) (hepatitis C virus); assay: peptide EIA summary (Table 11), peptide 53, aa 105-119
[15] = target: HCV Core Peptide # 48 (aa 95-109) (hepatitis C virus); assay: EIA on coated peptide 48 (well H6); IgG 2 ug/mL
[16] = target: HCV Core Peptide # 55 (aa 109-123) (hepatitis C virus); assay: EIA on coated peptide 55 (well G7); IgG 2 ug/mL
[17] = target: HCV Core1-169 recombinant antigen (hepatitis C virus (HCV-1)) (UniProt P26664); assay: sandwich EIA, 25 ng/ml core1-169; capture mAb 208B-1096
[18] = target: HCV Core1-169 recombinant antigen (hepatitis C virus (HCV-1)) (UniProt P26664); assay: sandwich EIA, 25 ng/ml core1-169; capture mAb C11-7
[19] = target: HCV Core1-169 recombinant antigen (hepatitis C virus (HCV-1)) (UniProt P26664); assay: sandwich EIA, 25 ng/ml core1-169; capture mAb 208A-293
[20] = target: HCV Core1-169 recombinant antigen (hepatitis C virus (HCV-1)) (UniProt P26664); assay: sandwich EIA, 25 ng/ml core1-169; capture NC capture mAb
[21] = target: HCV Core1-169 recombinant antigen (hepatitis C virus (HCV-1)) (UniProt P26664); assay: sandwich EIA, 25 ng/ml core1-169; capture mAb 208B-395-334
[22] = target: HCV Core1-169 recombinant antigen (hepatitis C virus (HCV-1)) (UniProt P26664); assay: sandwich EIA, 25 ng/ml core1-169; capture mAb 208A-110
[23] = target: HCV Core1-169 recombinant antigen (hepatitis C virus (HCV-1)) (UniProt P26664); assay: sandwich EIA, 25 ng/ml core1-169; capture mAb 208B-612-226
[24] = target: HCV Core1-169 recombinant antigen (hepatitis C virus (HCV-1)) (UniProt P26664); assay: sandwich EIA, 25 ng/ml core1-169; capture mAb 208A-692
[25] = target: HCV Core1-169 recombinant antigen (hepatitis C virus (HCV-1)) (UniProt P26664); assay: sandwich EIA, 25 ng/ml core1-169; capture mAb C11-9
[26] = target: HCV Core1-169 recombinant antigen (hepatitis C virus (HCV-1)) (UniProt P26664); assay: sandwich EIA, 25 ng/ml core1-169; capture mAb 208A-557
[27] = target: HCV Core1-169 recombinant antigen (hepatitis C virus (HCV-1)) (UniProt P26664); assay: sandwich EIA, 25 ng/ml core1-169; capture mAb 208A-207-271
[28] = target: HCV Core1-169 recombinant antigen (hepatitis C virus (HCV-1)) (UniProt P26664); assay: sandwich EIA, 25 ng/ml core1-169; capture mAb 208B-741

Chain of HCV Core1-169 recombinant antigen (hepatitis C virus (HCV-1)) (P26664 1-169, tags left off): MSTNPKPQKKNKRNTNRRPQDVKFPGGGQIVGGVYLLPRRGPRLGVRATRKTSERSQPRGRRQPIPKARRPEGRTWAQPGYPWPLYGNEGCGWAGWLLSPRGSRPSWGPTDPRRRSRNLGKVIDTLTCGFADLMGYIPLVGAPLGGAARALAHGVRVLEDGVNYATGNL

Row | Substance | OD492 nm [17] [OD492] | OD492 nm [18] [OD492] | OD492 nm [19] [OD492] | OD492 nm [20] [OD492] | OD492 nm [21] [OD492] | OD492 nm [22] [OD492] | OD492 nm [23] [OD492] | OD492 nm [24] [OD492] | OD492 nm [25] [OD492] | OD492 nm [26] [OD492] | OD492 nm [27] [OD492] | OD492 nm [28] [OD492] | further results
1 | C11-3 (ABT-4) monoclonal antibody | – | – | – | – | – | – | – | – | – | – | – | – | OD (A492 nm) [1]: 0.08 OD (A492 nm); OD (A492 nm) [2]: 1.03 OD (A492 nm); OD (A492 nm) [3]: 0.97 OD; OD (A492 nm) [4]: 0.08 OD (A492 nm); OD (A492 nm) [5]: 0.95 OD (A492 nm); OD (A492 nm) [6]: 1.01 OD (A492 nm); OD (A492 nm) [7]: 0.36 OD; OD (A492 nm) [8]: 1.03 OD (A492 nm); OD (A492 nm) [9]: 0.96 OD; OD (A492 nm) [10]: 0.08 OD; OD (A492 nm) [11]: 1.01 OD (A492 nm); OD (A492 nm) [12]: 0.97 OD; OD (A492 nm) [13]: 1 OD; OD (A492 nm) [14]: 0.36 OD (A492 nm); OD (A492 nm) [15]: 0.81 OD; OD (A492 nm) [16]: 0.06 OD
2 | anti-HCV Core C11-7 monoclonal antibody | 0.45 | 0.23 | 1.55 | 0.22 | 0.46 | 1.78 | 0.53 | 0.18 | 1.04 | 0.64 | 0.22 | 1.76 | –
3 | anti-HCV Core C11-9 monoclonal antibody | 0.82 | 1.91 | 1.84 | 0.62 | 0.95 | 2.59 | 0.63 | 0.58 | 2.75 | 1.18 | 0.44 | 2.32 | –
4 | negative control (NC) monoclonal antibody | 0.21 | 0.17 | 0.23 | 0.18 | 0.22 | 0.16 | 0.22 | 0.15 | 0.14 | 0.18 | 0.17 | 0.18 | –
